How the values were obtained:
Assay in all cases: purified protein
Format in all cases: biochemical, Providencia stuartii
[1] = system: CN[C@@H]1[C@@H](O)[C@@H](O[C@@H]2[C@@H](O)[C@H](O[C@H]3OC(CNCCO)=CC[C@H]3N)[C@@H](N)C[C@H]2NC(=O)[C@@H](O)CCN)OC[C@]1(C)O; conditions: acetyl-CoA (S)-HABA tail hydrogen bonds with Glu149 and Asp176
[2] = system: NC[C@H]1O[C@H](O[C@H]2[C@H](O)[C@@H](O[C@H]3O[C@H](CO)[C@@H](O)[C@H](N)[C@H]3O)[C@H](N)C[C@@H]2N)[C@H](N)C[C@@H]1O; conditions: acetyl-CoA aminoglycoside active site; acetylated at N-2′
[3] = system: CCN[C@@H]1C[C@H](N)[C@@H](O[C@H]2OC(CN)=CC[C@H]2N)[C@H](O)[C@H]1O[C@H]1OC[C@](C)(O)[C@H](NC)[C@H]1O; conditions: acetyl-CoA aminoglycoside active site; acetylated at N-2′

**Q.** Which Km [1] does the source give for AAC(2′)-Ia (Providencia stuartii) here?
**A.** The Km was 19.1 ± 2.5 µM.

**Q.** And the kcat [1]?
**A.** The kcat was 1.42 ± 0.05 s⁻¹.

**Q.** What about the kcat/Km [1] of the same substance?
**A.** The kcat/Km was 74000 ± 12000 M⁻¹ s⁻¹.

**Q.** And the Km [2]?
**A.** The Km was 14.5 ± 1.7 µM.

**Q.** And the kcat [2]?
**A.** Its kcat is 5.04 ± 0.17 s⁻¹.

**Q.** And the kcat/Km [2]?
**A.** The kcat/Km was 348000 ± 51000 M⁻¹ s⁻¹.

**Q.** What about the Km [3] of the same substance?
**A.** Its Km is 19.9 ± 1.3 µM.

**Q.** And the kcat [3]?
**A.** Its kcat is 6.05 ± 0.13 s⁻¹.

**Q.** And the kcat/Km [3]?
**A.** Its kcat/Km is 304000 ± 26000 M⁻¹ s⁻¹.

Reference: paper PMC8172861, “Structural and phylogenetic analyses of resistance to next-generation aminoglycosides conferred by AAC(2′) enzymes” (Scientific Reports, 2021)
